Measured values as given in PMC4432371, “Functional Characterization of Novel Sesquiterpene Synthases from Indian Sandalwood, Santalum album” (Scientific Reports, 2015).

Columns and labels:
SaFDS = SaFDS (Santalum album, UniProt E3W209); assay: GC / GC-MS of (E,E)-farnesol after alkaline phosphatase; assay type: biochemical; conditions: 25 mM HEPES, 10% glycerol, 5 mM DTT, 10 mM MgCl2, pH 7.4, 30 °C
SaSS = SaSS (Santalum album, UniProt E3W202, Y539W); assay: GC / GC-MS product analysis; assay type: biochemical; conditions: data not shown; mutant sequence NCBI JQ690659; assay form of the mutant not described
Sequence of SaSS (E3W202 whole entry Y539W): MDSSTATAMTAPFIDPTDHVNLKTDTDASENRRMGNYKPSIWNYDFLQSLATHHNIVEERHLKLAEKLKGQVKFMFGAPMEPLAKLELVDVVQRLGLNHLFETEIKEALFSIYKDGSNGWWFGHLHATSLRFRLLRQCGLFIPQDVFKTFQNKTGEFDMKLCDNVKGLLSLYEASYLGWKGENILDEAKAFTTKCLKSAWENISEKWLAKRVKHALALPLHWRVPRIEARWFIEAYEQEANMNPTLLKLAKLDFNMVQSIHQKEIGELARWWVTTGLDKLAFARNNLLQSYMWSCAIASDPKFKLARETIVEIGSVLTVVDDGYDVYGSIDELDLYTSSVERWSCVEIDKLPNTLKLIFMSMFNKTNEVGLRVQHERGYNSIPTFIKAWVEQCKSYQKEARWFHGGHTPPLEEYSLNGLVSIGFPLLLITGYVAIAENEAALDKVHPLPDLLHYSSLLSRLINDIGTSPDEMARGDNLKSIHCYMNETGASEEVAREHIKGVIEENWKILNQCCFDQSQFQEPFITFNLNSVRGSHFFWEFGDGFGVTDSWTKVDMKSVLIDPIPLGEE

[1] = substrate: CC(C)=CCC/C(C)=C/CC/C(C)=C/CO[P@@](=O)(O)OP(=O)(O)O; assay: GC quantification of product, steady-state kinetics; assay type: biochemical, Santalum album; conditions: apparent Km, HEPES buffer, 30 °C, 5 min, 5 μM enzyme
Description: GC quantification of product, steady-state kinetics on SaSQS1

[2] = substrate: CC(C)=CCC/C(C)=C/CC/C(C)=C/CO[P@@](=O)(O)OP(=O)(O)O; assay: as above; assay type: biochemical, Santalum album; conditions: apparent Km, HEPES buffer, 30 °C, 5 min, 5 μM enzyme; remark: listed apart in the source
Description: GC quantification of product, steady-state kinetics on SaSQS2

[3] = substrate: CC(C)=CCC/C(C)=C/CC/C(C)=C/CO[P@@](=O)(O)OP(=O)(O)O; assay: as above; assay type: biochemical, Santalum album; conditions: apparent Km, HEPES buffer, 30 °C, 5 min, 5 μM enzyme; remark: listed apart in the source
Description: GC quantification of product, steady-state kinetics on SaSS

[4] = substrate: CC(C)=CCC/C(C)=C/CC/C(C)=C/CO[P@@](=O)(O)OP(=O)(O)O; assay: as above; assay type: biochemical, Santalum album; conditions: apparent Km, HEPES buffer, 30 °C, 5 min, 5 μM enzyme; remark: listed apart in the source
Description: GC quantification of product, steady-state kinetics on SaBS

Sequence of SaFDS (E3W209 entry or part of it): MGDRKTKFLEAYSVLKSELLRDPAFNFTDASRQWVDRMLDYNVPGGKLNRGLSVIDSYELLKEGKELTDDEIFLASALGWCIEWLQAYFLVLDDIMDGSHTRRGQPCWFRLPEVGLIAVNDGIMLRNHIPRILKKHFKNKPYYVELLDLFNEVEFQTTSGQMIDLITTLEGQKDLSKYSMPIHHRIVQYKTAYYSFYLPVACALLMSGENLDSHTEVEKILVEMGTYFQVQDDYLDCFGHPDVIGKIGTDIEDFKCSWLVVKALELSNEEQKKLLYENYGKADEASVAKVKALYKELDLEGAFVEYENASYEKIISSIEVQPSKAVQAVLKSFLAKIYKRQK

C=C(C)CCOP(=O)(O)OP(=O)(O)O [IPP]
GC / GC-MS of (E,E)-farnesol after alkaline phosphatase (SaFDS; with GPP or DMAPP): Incubation of recombinant SaFDS with equimolar concentrations of IPP and GPP

CC(C)=CCC/C(C)=C/COP(=O)(O)OP(=O)(O)O [GPP]
GC / GC-MS of (E,E)-farnesol after alkaline phosphatase (SaFDS; with IPP): Incubation of recombinant SaFDS with equimolar concentrations of IPP and GPP

CC(C)=CCC/C(C)=C/CC/C(C)=C/COP(=O)(O)OP(=O)(O)O [(E,E)-FPP]
GC / GC-MS product analysis (SaSS): a mutant of SaSS (Y539W, NCBI: JQ690659) was able to cyclize (E,E)-FPP

B1: SaSQS1 (Santalum album) (protein)
chain: MDLCQIPPTSPISPSVPFNGDDSSVVRRSANYPANLWDYDFLQSLGRHSSVTEEHVGLAEKLKGEVKSLITGPMEPLAKLEFIDSVRRLGLKYQFETEMKEALANISKDGYDSWWVDNLRATALRFRLLRENGIFVPQDVFERFQNKETGKFKNELCEDVKGLLNLYEASFLGWEGEDILDEARTFSTAQLKNVEGKISSPNLAKIVHHALDLPLHWRAIRYEARWFIDIYEDEEDMNPTLLKYAKLDFNIVQSFHQAEIGRLARWWVGTGLDKLPFARNGLIQSYMYAIGMLFEPHLGEVREMEAKVGALITTIDDVYDVYGTMEELELFTDITERWDINRVDQLPRNIRMPLLTMFNTSNDIGYWALKERGFNGIPYTAKVWADQLKSYTKEAKWFHEGHKPTLEEYLENALVSIGFPNLLVTSYLLTVDNPTKEKLDYVDSLPLFVRASCILCRIINDLGTSPDEMERGDNLKSIQCYMNETGASQEVAREHIEGLVRMWWKRLNKCLFEPSPFTEPFLSFTINVVRGSHFFYQYGDGYGNAESWTKNQGMSVLIHPITLDEE
Km [1]: 11.12 ± 2.80 µM
kcat [1]: 0.00583 ± 0.0005 s⁻¹
kcat/Km [1]: 500 M⁻¹ s⁻¹

B2: SaSQS2 (Santalum album) (protein)
chain: MASVIVEPIRCNNDNDVISTVVDDSSVVRRAANYPPNLWDYEFLQSLGDQCTVEEKHLKLADKLKEEVKSLIKQTMEPLTKLEFIDTVRRLGLKYQFETEVKEAVVMVSKYENDAWWIDNLHATSLRFRIMRENGIFVPQDVFERFKDTDGFKNQLCEDVKGLLSLYEASFLGWEGEDILDEARTFATSKLKSIEGKIPSPSLAKKVSHALDLPLHWRTIRYEARWFIDTYEEEEDVNLTLLRYAKLDFNIVQSFHQKEIGRLSRWWVGTGLDKMPFARNGLIQSYMYAIGMLFEPNLGEVREMEAKVGALITTIDDVYDVYGTMEELELFTDITNRWDISKADQLPRNIRMPLLTMFNTSNDIGYWALKERGFNGIPCTAKVWSDQLKSYTKEAKWFHEGHKPTLEEYLDNALVSIGFPNLLVTSYLLTVENPTKEKLDYVNSLPLFVRASCILCRIINDLGTSPDEMERGDNLKSIQCYMNEAGASQEVAREHIEGLVRMWWKRLNKCLFEPSPFAEPFLSFTVNVVRGSHFFYQYGDGYGNAESWTKKQGMSVLIHPIPLNEE
Km [2]: 15.30 ± 3.83 µM
kcat [2]: 0.00233 ± 0.000167 s⁻¹
kcat/Km [2]: 150 M⁻¹ s⁻¹

B3: SaSS (Santalum album) (protein)
chain: MDSSTATAMTAPFIDPTDHVNLKTDTDASENRRMGNYKPSIWNYDFLQSLATHHNIVEERHLKLAEKLKGQVKFMFGAPMEPLAKLELVDVVQRLGLNHLFETEIKEALFSIYKDGSNGWWFGHLHATSLRFRLLRQCGLFIPQDVFKTFQNKTGEFDMKLCDNVKGLLSLYEASYLGWKGENILDEAKAFTTKCLKSAWENISEKWLAKRVKHALALPLHWRVPRIEARWFIEAYEQEANMNPTLLKLAKLDFNMVQSIHQKEIGELARWWVTTGLDKLAFARNNLLQSYMWSCAIASDPKFKLARETIVEIGSVLTVVDDGYDVYGSIDELDLYTSSVERWSCVEIDKLPNTLKLIFMSMFNKTNEVGLRVQHERGYNSIPTFIKAWVEQCKSYQKEARWFHGGHTPPLEEYSLNGLVSIGFPLLLITGYVAIAENEAALDKVHPLPDLLHYSSLLSRLINDIGTSPDEMARGDNLKSIHCYMNETGASEEVAREHIKGVIEENWKILNQCCFDQSQFQEPFITFNLNSVRGSHFFYEFGDGFGVTDSWTKVDMKSVLIDPIPLGEE
Km [3]: 0.59 ± 0.24 µM
kcat [3]: 0.00833 ± 0.0005 s⁻¹
kcat/Km [3]: 15000 M⁻¹ s⁻¹

B4: SaBS (Santalum album) (protein)
chain: MDAFATSPTSALIKAVNCIAHVTPMAGEDSSENRRASNYKPSSWDYEFLQSLATSHNTVQEKHMKMAEKLKEEVKSMIKGQMEPVAKLELINILQRLGLKYRFESEIKEELFSLYKDGTDAWWVDNLHATALRFRLLRENGIFVPQDVFETLKDKSGKFKSQLCKDVRGLLSLYEASYLGWEGEDLLDEAKKFSTTNLNNVKESISSNTLGRLVKHALNLPLHWSAARYEARWFIDEYEKEENVNPNLLKYAKFDFNIVQSIHQRELGNLARWWVETGLDKLSFVRNTLMQNFMWGCAMVFEPQYGKVRDAAVKQASLIAMVDDVYDVYGSLEELEIFTDIVDRWDITGIDKLPRNISMILLTMFNTANQIGYDLLRDRGFNGIPHIAQAWATLCKKYLKEAKWYHSGYKPTLEEYLENGLVSISFVLSLVTAYLQTETLENLTYESAAYVNSVPPLVRYSGLLNRLYNDLGTSSAEIARGDTLKSIQCYMTQTGATEEAAREHIKGLVHEAWKGMNKCLFEQTPFAEPFVGFNVNTVRGSQFFYQHGDGYAVTESWTKDLSLSVLIHPIPLNEED
Km [4]: 12.59 ± 1.40 µM
kcat [4]: 0.000667 s⁻¹
kcat/Km [4]: 50 M⁻¹ s⁻¹
